Measured values taken from patent publication US20210299283A1 (SANFORD BURNHAM PREBYS MEDICAL DISCOVERY INSTITUTE, published 2021).
Primed or numbered codes have the meaning given here. Where no end group is shown, it is not given here. [ ]: non-standard residue; d: D form. Ahx = NCCCCCC(=O)O; FAM″ = fluorescein

T1: CTGF, endogenous human (U251 astrocytoma cell lysate; human AD brain sections) (human, UniProt P29279 27-349, limits assumed)
T1 construct: Native protein in a cell lysate, on cells or in tissue sections; Identified by LC-MS/MS against the Uniprot database; also called CCN2; connective tissue growth factor
T1 sequence (looked up): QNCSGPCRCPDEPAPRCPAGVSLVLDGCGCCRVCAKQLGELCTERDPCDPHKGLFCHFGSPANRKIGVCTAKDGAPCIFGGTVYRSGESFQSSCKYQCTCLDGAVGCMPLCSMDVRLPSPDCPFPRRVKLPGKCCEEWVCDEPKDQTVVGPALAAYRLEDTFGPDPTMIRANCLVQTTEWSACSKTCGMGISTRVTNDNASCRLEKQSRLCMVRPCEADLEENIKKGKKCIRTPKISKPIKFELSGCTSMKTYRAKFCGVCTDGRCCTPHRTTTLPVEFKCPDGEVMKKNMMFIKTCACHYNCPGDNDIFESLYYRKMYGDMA


Key:
[1] = target: T1, CTGF, endogenous human (U251 …); assay: affinity chromatography of U251 cell lysate on biotin-DAG magnetic particles, control peptide wash, elution with 1 mM free DAG, LC-MS/MS
Description: For identifying DAG binding proteins, the human glioblastoma astrocytoma cell line U251 was lysed in PBS containing 200 mM n-octyl-beta-D-glucopyranoside and protease inhibitor cocktail (Roche) as described previously with slight modifications. The clarified lysates were loaded on to Sera-Mag magnetic particles (GE Healthcare Lifesciences, USA) coated with biotin-DAG, and incubated overnight with rotation at 4° C. The magnetic beads were washed with wash buffer followed by additional washing with 0.5 mM control peptide ([…]; SEQ ID NO: 103) to remove non-specifically bound proteins. The bound proteins were eluted with 1 mM free DAG peptide. The eluted factions were pooled, their protein concentration determined by using bicinchoninic acid (BCA) protein assay (Pierce) and the samples were digested using the Filter-aided Sample Preparation (FASP) method. Finally, the digested samples were dried, desalted and subjected to LC-MS/MS analysis at the Sanford Burnham Prebys Medical Discovery Institute's Proteomics Core facility. All mass spectra were analyzed with MaxQuant™ software version 1.5.0.25. The MS/MS spectra were searched against the Uniprot™ protein sequence database (version July 2014).

[2] = target: T1, CTGF, endogenous human (U251 …); assay: DAG-AgNP binding to cultured U251 cells, fluorescence microscopy
Description: FIG. 7 is a graphical representation showing quantity of DAG-coated silver nanoparticles (DAG-AgNPs) binding to human astrocytoma U251 cells. Cultured U251 cells were incubated with DAG-AgNPs alone, in the presence of free non-labeled control peptide, or an excess of free, non-labeled DAG (both at 200 μM), for 1 hour at 37° C. Nanoparticle binding was quantified from fluorescence micrographs using ImageJ™ software. Scale bar, 20 μm.
Cell binding experiments on U251 cells and hiPSCs were with done using peptide conjugated AgNP. U251 cells were cultured in a 96-well plate. The cells were blocked with 200 μl of 10% FCS in HBSS (Hanks' Balanced Salt Solution from Gibco) for 30 min at 37° C. Following that, DAG-AgNPs (0.5 nM concentration diluted in HBSS) alone or in the presence of free non-labeled peptide (200 μM) were incubated on the cells for 1 hour at 37° C. After washing the unbound AgNP with HBSS three times, the plates were imaged with fluorescent microscopy by looking at intrinsic emission from the FAM tag on the peptide. hiPSCs were cultured in 48 well plate and similar protocol as described above was followed, with the exception that AgNP concentration for incubation was kept at 0.15 nM. Nanoparticle binding was quantified from fluorescence micrographs using ImageJ™ software.

| binding result [1] | binding result [2] | Binder |
| --- | --- | --- |
| binds | – | CDAGRKQKC-NH2 (not fully specified (bridges); also: fluorescein (FAM) or biotin tag at the N-terminus, described as a cyclic peptide, ring not given here, also called FAM-DAG; FAM-labeled DAG) [DAG peptide (CDAGRKQKC), labelled synthetic cyclic peptide] |
| – | binds | {FAM″}-C[Ahx]CDAGRKQKC-NH2 (also: conjugated via the added Cys thiol to maleimide-PEG on silver nanoparticles, Many copies of the peptide on silver nanoparticles of about 35 nm; also called DAG-AgNP; DAG-AgNPs) [DAG-conjugated silver nanoparticles (FAM-cys-x-DAG-NH2 on AgNPs)] |
